# Measurements as given in patent US20250034273A1 (ARBELE, published 2025).
# B1: ARB203-h3G8 v1 (bispecific antibody)
# heavy: EVQLVESGGGLVQPGGSLRLSCAASGFTFSTYTMSWVRQTPAKGLVWVSTINSDGYNIYYSDSMKGRFTISRDNAKYTLYLQMNSLRAEDTAMYYCARCSYYSYDYFDYWGQGTLVTVSSASTKGPSVFPLAPSSKSTSGGTAALGCLVKDYFPEPVTVSWNSGALTSGVHTFPAVLQSSGLYSLSSVVTVPSSSLGTQTYICNVNHKPSNTKVDKRVEPKSCDKTHTCPPCPAPELLGGPSVFLFPPKPKDTLMISRTPEVTCVVVDVSQEDPEVQFNWYVDGVEVHNAKTKPREEQFNSTYRVVSVLTVLHQDWLNGKEYKCKVSNKGLPSSIEKTISKAKGQPREPQVYTLPPSQEEMTKNQVSLTCLVKGFYPSDIAVEWESNGQPENNYKTTPPVLDSDGSFFLYSRLTVDKSRWQEGNVFSCSVMHEALHNHYTQKSLSLSLGKPAGGGGSQVQLVQSGAEVKKPGASVKVSCKASGYTFTSYYMHWVRQAPGQGLEWMGWIYPENVNTNYAQKFQGRVTMTRDTSISTAYMELSRLRSDDTAVYYCARDSYGSYFFDYWGQGTLVTVSSGGGGSGGGGSGGGGSDIVMTQSPDSLAVSLGERATINCKSSQSLLNSRTRKNYLAWYQQKPGQPPKLLIYWASTRESGVPDRFSGSGSGTDFTLTISSLQAEDVAVYYCTQSFILRTFGQGTKVEIK
# light: DIQMTQSPSSLSASVGDRVTITCRASENIDNYLAWYQQKQGKVPKLLIYAATNLADGMPSRFSGSGSGTDFTLTISSLQPEDVATYYCQHYYSNQLTFGQGTKLEIKRTVAAPSVFIFPPSDEQLKSGTASVVCLLNNFYPREAKVQWKVDNALQSGNSQESVTEQDSKDSTYSLSSTLTLSKADYEKHKVYACEVTHQGLSSPVTKSFNRGEC
# notes: also called h8B5-h3G8 V1; h8B5-h3G8v1
# B2: ARB203, bispecific antibody of anti-Trop2 (h8B5) and anti-CD3 (UCHT1) (bispecific antibody, human IgG1, kappa)
# heavy: EVQLVESGGGLVQPGGSLRLSCAASGFTFSTYTMSWVRQTPAKGLVWVSTINSDGYNIYYSDSMKGRFTISRDNAKYTLYLQMNSLRAEDTAMYYCARCSYYSYDYFDYWGQGTLVTVSSASTKGPSVFPLAPSSKSTSGGTAALGCLVKDYFPEPVTVSWNSGALTSGVHTFPAVLQSSGLYSLSSVVTVPSSSLGTQTYICNVNHKPSNTKVDKRVEPKSCDKTHTCPPCPAPELLGGPSVFLFPPKPKDTLMISRTPEVTCVVVDVSQEDPEVQFNWYVDGVEVHNAKTKPREEQFNSTYRVVSVLTVLHQDWLNGKEYKCKVSNKGLPSSIEKTISKAKGQPREPQVYTLPPSQEEMTKNQVSLTCLVKGFYPSDIAVEWESNGQPENNYKTTPPVLDSDGSFFLYSRLTVDKSRWQEGNVFSCSVMHEALHNHYTQKSLSLSLGKPAGGGGSEVQLVESGGGLVQPGGSLRLSCAASGYSFTGYTMNWVRQAPGKGLEWVALINPYKGVSTYNQKFKDRFTISVDKSKNTAYLQMNSLRAEDTAVYYCARSGYYGDSDWYFDVWGQGTLVTVSSGGGGSGGGGSGGGGSDIQMTQSPSSLSASVGDRVTITCRASQDIRNYLNWYQQKPGKAPKLLIYYTSRLESGVPSRFSGSGSGTDYTLTISSLQPEDFATYYCQQGNTLPWTFGQGTKVEIK
# light: DIQMTQSPSSLSASVGDRVTITCRASENIDNYLAWYQQKQGKVPKLLIYAATNLADGMPSRFSGSGSGTDFTLTISSLQPEDVATYYCQHYYSNQLTFGQGTKLEIKRTVAAPSVFIFPPSDEQLKSGTASVVCLLNNFYPREAKVQWKVDNALQSGNSQESVTEQDSKDSTYSLSSTLTLSKADYEKHKVYACEVTHQGLSSPVTKSFNRGEC
# notes: IgG4 Fc with IgG1 hinge; Bivalent Fab to Trop2 and bivalent scFv to CD3 at the heavy chain C-terminus
# B3: h8B5-h3G8v2, bispecific anti-Trop2 (h8B5) / anti-CD3 (h3G8 scFv V2, VL-VH with 3xGS linker) (bispecific antibody, human IgG1, kappa)
# heavy: EVQLVESGGGLVQPGGSLRLSCAASGFTFSTYTMSWVRQTPAKGLVWVSTINSDGYNIYYSDSMKGRFTISRDNAKYTLYLQMNSLRAEDTAMYYCARCSYYSYDYFDYWGQGTLVTVSSASTKGPSVFPLAPSSKSTSGGTAALGCLVKDYFPEPVTVSWNSGALTSGVHTFPAVLQSSGLYSLSSVVTVPSSSLGTQTYICNVNHKPSNTKVDKRVEPKSCDKTHTCPPCPAPELLGGPSVFLFPPKPKDTLMISRTPEVTCVVVDVSQEDPEVQFNWYVDGVEVHNAKTKPREEQFNSTYRVVSVLTVLHQDWLNGKEYKCKVSNKGLPSSIEKTISKAKGQPREPQVYTLPPSQEEMTKNQVSLTCLVKGFYPSDIAVEWESNGQPENNYKTTPPVLDSDGSFFLYSRLTVDKSRWQEGNVFSCSVMHEALHNHYTQKSLSLSLGKPAGGGGSDIVMTQSPDSLAVSLGERATINCKSSQSLLNSRTRKNYLAWYQQKPGQPPKLLIYWASTRESGVPDRFSGSGSGTDFTLTISSLQAEDVAVYYCTQSFILRTFGQGTKVEIKGGGGSGGGGSGGGGSQVQLVQSGAEVKKPGASVKVSCKASGYTFTSYYMHWVRQAPGQGLEWMGWIYPENVNTNYAQKFQGRVTMTRDTSISTAYMELSRLRSDDTAVYYCARDSYGSYFFDYWGQGTLVTVSS
# light: DIQMTQSPSSLSASVGDRVTITCRASENIDNYLAWYQQKQGKVPKLLIYAATNLADGMPSRFSGSGSGTDFTLTISSLQPEDVATYYCQHYYSNQLTFGQGTKLEIKRTVAAPSVFIFPPSDEQLKSGTASVVCLLNNFYPREAKVQWKVDNALQSGNSQESVTEQDSKDSTYSLSSTLTLSKADYEKHKVYACEVTHQGLSSPVTKSFNRGEC
# notes: IgG4 Fc with IgG1 hinge, scFv at the heavy chain C-terminus
# B4: ARB204, CDH17-PD1 bispecific antibody (anti-CDH17 10C12 Fab, anti-PD1 1C8 scFv) (bispecific antibody, human IgG1, kappa)
# heavy: EVQLVESGGGLVQPGGSLRLSCAASGFTFSSYAMSWVRQTPGKGLEWVAVIDSNGGSTYYPDTVKDRFTISRDNSKNTLYLQMNSLRAEDTAVYYCSSYTNLGAYWGQGTLVTVSAASTKGPSVFPLAPSSKSTSGGTAALGCLVKDYFPEPVTVSWNSGALTSGVHTFPAVLQSSGLYSLSSVVTVPSSSLGTQTYICNVNHKPSNTKVDKRVEPKSCDKTHTCPPCPAPELLGGPSVFLFPPKPKDTLMISRTPEVTCVVVDVSQEDPEVQFNWYVDGVEVHNAKTKPREEQFNSTYRVVSVLTVLHQDWLNGKEYKCKVSNKGLPSSIEKTISKAKGQPREPQVYTLPPSQEEMTKNQVSLTCLVKGFYPSDIAVEWESNGQPENNYKTTPPVLDSDGSFFLYSRLTVDKSRWQEGNVFSCSVMHEALHNHYTQKSLSLSLGKPAGGGGSEVQLVESGGGLVQPGGSLRLSCAASGFTFSRSTMSWVRQAPGKGLEWVATISGGGLNTYFPDSVKGRFTISRDNSKNTLYLQMNSLRAEDTAVYYCTRNSNSYYFALDYWGQGTLVTVSSGGGGSGGGGSGGGGSEIVLTQSPATLSLSPGERATLSCRASESVDNSGVSFMNWYQQKPGQAPRLLIYIASNQVSGIPARFSGSGSGTDFTLTISSLEPEDFAVYYCQQIKEVPWTFGGGTKVEIK
# light: DIQMTQSPSSLSASVGDRVTITCRASQDISGYLNWLQQKPGGAIKRLIYTTSTLDSGVPKRFSGSGSGTDFTLTISSLQSEDFATYYCLQYASSPFTFGGGTKVEIKRTVAAPSVFIFPPSDEQLKSGTASVVCLLNNFYPREAKVQWKVDNALQSGNSQESVTEQDSKDSTYSLSSTLTLSKADYEKHKVYACEVTHQGLSSPVTKSFNRGEC
# notes: IgG4 Fc with IgG1 hinge, bivalent to each target
# Key:
# human Trop2 [1] = biological target: T1, human Trop2 (human, UniProt P09758 27-274, limits assumed); assay: absorbance assay (Net absorbance, Abs 450) on 'Trop2-hFc'; one unprinted antibody concentration
# T1 sequence (looked up): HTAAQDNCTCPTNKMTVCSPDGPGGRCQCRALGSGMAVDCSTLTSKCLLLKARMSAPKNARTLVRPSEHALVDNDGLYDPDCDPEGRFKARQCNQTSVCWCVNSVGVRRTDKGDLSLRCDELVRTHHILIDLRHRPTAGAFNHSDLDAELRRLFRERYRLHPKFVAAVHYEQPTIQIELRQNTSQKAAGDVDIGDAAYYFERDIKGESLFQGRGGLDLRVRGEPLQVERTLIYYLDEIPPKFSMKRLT
# [2] = biological target: T2, Trop2 on cells (Trop2-positive SW480 cells; Trop2-expressing HEK293 cells) (UniProt P09758 27-323, limits assumed); assay: receptor occupancy (%) on Trop2-positive SW480 cells against ARB203 (nM)
# T2 construct: whole, on cells
# T2 sequence (looked up): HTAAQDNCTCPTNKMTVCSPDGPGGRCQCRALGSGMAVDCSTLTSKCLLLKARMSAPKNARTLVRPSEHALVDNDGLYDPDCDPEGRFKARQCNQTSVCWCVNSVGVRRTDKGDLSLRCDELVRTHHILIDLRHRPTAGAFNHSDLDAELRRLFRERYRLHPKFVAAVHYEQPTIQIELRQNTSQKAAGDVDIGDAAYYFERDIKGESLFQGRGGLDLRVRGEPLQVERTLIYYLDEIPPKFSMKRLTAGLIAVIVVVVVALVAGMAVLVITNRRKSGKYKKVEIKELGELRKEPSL
# human Trop2 [3] = biological target: T1, human Trop2; assay: Octet (BLI)
# human CD3 [4] = biological target: human CD3 (human); assay: receptor occupancy (Percentage) on PBMC against ARB203 (nM); the legend speaks of occupancy on T cells, the CD3 arm of ARB203
# [5] = biological target: T2, Trop2 on cells (Trop2-positive SW480 …); assay: receptor occupancy (Percentage) on DLD1/DLD1-2C7 cancer cells against ARB203 (nM); Trop2 arm of ARB203
# monkey CD3 = biological target: T3, monkey CD3 (monkey); assay: Octet sensorgrams (nm against time), panel 'Cynomolgus CD3', association to about 900 s, dissociation to 1800 s
# T3 chain: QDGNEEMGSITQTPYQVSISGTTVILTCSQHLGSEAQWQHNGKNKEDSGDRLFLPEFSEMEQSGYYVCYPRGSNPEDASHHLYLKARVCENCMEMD
# human CD3 [6] = biological target: human CD3 (human); assay: Octet sensorgrams (nm against time), panel 'Human CD3', association to about 900 s, dissociation to 1800 s
# [7] = biological target: T4, PD1 expressed on HEK293F cells (UniProt Q15116 25-288, limits assumed); assay: flow cytometry binding, receptor occupancy (0 to 1) on HEK293F cells expressing PD1 against Antibody (nM)
# T4 construct: whole, on cells; also called HEK293F expressing PD1; HKE293F expressing PD1
# T4 sequence (Q15116 25-288 limits assumed): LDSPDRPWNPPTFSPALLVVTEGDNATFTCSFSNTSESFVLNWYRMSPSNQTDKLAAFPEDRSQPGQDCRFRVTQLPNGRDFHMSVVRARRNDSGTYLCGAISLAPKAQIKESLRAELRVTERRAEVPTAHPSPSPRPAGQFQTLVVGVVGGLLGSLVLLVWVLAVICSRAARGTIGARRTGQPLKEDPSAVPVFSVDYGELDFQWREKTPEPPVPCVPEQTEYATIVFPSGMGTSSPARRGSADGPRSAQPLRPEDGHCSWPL
# Chain of human CD3 (human) (chain, as listed by the source): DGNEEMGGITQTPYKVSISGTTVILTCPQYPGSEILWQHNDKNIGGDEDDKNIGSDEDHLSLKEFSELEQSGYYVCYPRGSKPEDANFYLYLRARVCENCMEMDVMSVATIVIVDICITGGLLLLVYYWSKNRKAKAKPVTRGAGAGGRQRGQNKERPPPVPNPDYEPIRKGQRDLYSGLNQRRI
binder,measurement,setting,value
B1,binding result,human Trop2 [1],binds
B2,EC50,[2],0.155 nM
same,Kd,human Trop2 [3],≤ 0.001 nM
same,EC50,human CD3 [4],20.9 nM
same,EC50 (read off the curve),[5],~0.4 nM
B3,Kd,monkey CD3,0.802 nM
same,Kd,human CD3 [6],3.7 nM
B4,EC50,[7],0.217 nM
